Test results reported in the DeepSol protein solubility set.

Assay: soluble on expression in E. coli; label from the status in PepcDB or PDB records

## MHPTGPQLGPDVLFRESKMKVTLTFNEQRRAAYRQQGLWGDASLADYWQQTARAMPDKIAVVDNHGASYTYSALDHAASCLANWMLAKGIESGDRIAFQLPGWCEFTVIYLACLKIGAVSVPLLPSWREAELVWVLNKCQAKMFFAPTLFKQTRPVDLILPLQNQLPQLQQIVGVDKLAPATSSLSLSQIIADNIPLTTAITTHGDELAAVLFTSGTEGLPKGVMLTHNNILASERAYCARLNLTWLDVFMMPAPLGHATGFLHGVTAPFLIGARSVLLDIFTPDACLALLEQQRCTCMLGATPFVYDLLNLLEKQPADLSALRFFLCGGTTIPKKVARECQQRSIKLLSVYGSTESSPHAVVNLDNSLSRFMHTDGYAAAGVEIKVVDDARKTLPPGCEGEEASRGPNVFMGYFDEPELTARALDEEGWYYSGDLCRMDEAGYIKITGRKKDIIVRGGENISSREVEDILLQHPKIHDACVVAMPDERLGERSCAYVVLKAPHHSLSLEEMAAFFSRKRVAKYKYPEHIVVIEKLPRTASDKIQKFLLRKDIIRRLTQDVCEEIE
  soluble on expression in E. coli: not soluble

## SLTKPIGEKADPERLAAFLNEKGGNALSHLGFLGDKRFYFSSDGNALLLFGKIARRLVVLGDPSGQRESFPLVLEEFLNEAHQKGFSVLFYQIEREDMALYHDFGYNFFKLGEEAYVDLNTFTLTGKKKAGLRAINNRFEREEYTFHVDHPPFSDAFLEELKQISDEWLGSKKEKGFSLGFFDPSYLQKAPIAYMKNAEGEIVAFANVMPMYQEGEISVDLMRYRGDAPNGIMDALFIRMFLWAKEEGCTSFNMGMAPLANVGTAFTSFWSERFAAVIFNNVRYMYSFSGLRAFKEKYKPEWRGKYLAYRKNRSLSVTMFLVTRLIGKSKKDSV
  soluble on expression in E. coli: soluble

## MPPLECDVLVIGSGASGLAAAVTAAHHGLTVVVAEKASQLGGTSAWSGGWLWIPRNPLAIAEGIVEADDAPERYLRAQTHTRELDPRQRAFLRHGPEMVAFFEQHTAVQFQCGSRMPDMREGDGSARGGRSLCALPYDGRRLGPWLHKLRPPLDIVSLAGMGIAGGADMAAFFNATRSPKAALHVGKRLLRHGRDLLLHRRGLHLVNGNALVARLLRSALDRGVTLLTEKAASRLLLCEERVNGALFADGQAIYARRGVVLACGGFPHDRQRISQLMPHAPDGDQHYSAAPRENSGDGLRLGEQAGGRVSAAGAHGGAWAPVSQVPRRNGHFGHFPHLIDRAKPGFIAVRRDGRRFVNEADCYHDFMNALFAATPQAEQPEAWLICDHAAQRRYGIGWAKPFPFPTRFYQRSGYLHSGATLAQLAQRCGIDAEQLQRTVEGFNHHAAQGEDPTFLRGASAYNRAQGDPQQVPNPSLRPLLKGPFHAVKLLPGSLGTFAGLDTDASARVLDHAGQPIPGLFAVGNDMHSVMGGYYPSGGITLGPGMTFGYLAGRALSAGCADHLEHHHHHH
  soluble on expression in E. coli: not soluble

## AIAADGQMPFSCHYPSRLRRDPFRDSPLSSRLLDDGFGMDPFPDDLTASWPDWALPRLSSAWPGTLRSGMVPRGPTATARFGVPAEGRTPPPFPGEPWKVCVNVHSFKPEELMVKTKDGYVEVSGKHEEKQQEGGIVSKNFTKKIQLPAEVDPVTVFASLSPEGLLIIEAPQVPPYSTFGESSFNNELPQDSQEVTCT
  soluble on expression in E. coli: soluble

## MKYWLYTSLFLALIFSFRSYANSDIWILIDTLEQRLSVMRGDKAQLAFNNIAIGRYGASSSRMKGDNQTPLGSFQISWIKQHHRYYRFFGVDFPNQEAADLALAEKRISRQAWLSITKAIESSRLPPQDTPLGGYIGIHGIGRGDRTVHARFNWTNGCVALTNAQIDELSSWIKIGTKVVIR
  soluble on expression in E. coli: not soluble

## MFRLLVPTYYSYSVPLRFPFCKIYRYSTSNKMVAIKDITARQILDSRGNPTVEVDLLTDGGCFRAAVPSGASTGIYEALELRDKDQTKFMGKGVMKAVENIHKIIKPALIGKDPCDQKGIDKLMVEELDGTKNEWGWCKSKLGANAILAVSMACCRAGAAAKGMPLYKYIATLAGNPTDKMVMPVPFFNVINGGSHAGNKVAMQEFMIAPVGASTIQEAIQIGAEVYQHLKVVIKKKYGLDATNVGDEGGFAPNISGATEALDLLMEAIKVSGHEGKVKIAADVAASEFFLQDDKVYDLDFKTPNNDKSQRKTGEELRNLYKDLCQKYPFVSIEDPFDQDDFHSYAQLTNEVGEKVQIVGDDLLVTNPTRIEKAVQEKACNGLLLKVNQIGTVSESIEACQLAQKNKWGVMVSHRSGETEDSFIADLVVGLRTGQIKTGAPCRSERLCKYNQLMRIEESLGSDCQYAGAGFRHPN
  soluble on expression in E. coli: soluble

## MKQPTLAVIMTCHNRRNTTLACLQALYQQKNHFDVYLTDDGSTDGTAEFIKAEYPDVKIFQGDGNLFWVGGMHLAFGEAIKNQYDYYLWLNDDTFLEADALEKLLQVHENLAVEGYGQSIVVGSTQDPITKQATYGGAVKSKKWYSNKFEFLEPTSDVQKCDAMYGNCVLIPHSVTLKVGNIDTAFIHSLGDLDYALRARNLGLEHHHHHH
  soluble on expression in E. coli: not soluble

## MGSDKIHHHHHHMARRKEHSHDEIRVMAIEAAIALLQQQGVQGLSLRKIASEIGYVPSTLINIFGSYNYLLLAVSEATLQLLMSHLSAVSENDSLRHIIVMAQKYSEFAHSQRQCFKLVFELQLLESEHLPASQGQLIANLFRLIENELALLFPNETIEQQLQMSRVLWGGIHGLTALSLDNKLFADTVSLPALLESHVTGYLQGMGYQREEACC
  soluble on expression in E. coli: not soluble

## MGSDKIHHHHHHVVYRYGLALVTQPPLVSLEDLGYGHGPGQRLFDGLSLHIHSGECHCICGPTGSGKSSLLALIAGLNERPFAGVLECQSGVQVALVMQDPQVQLLRRTLGAEVAFGLENQGVAADDMPAAVKSALIRVGLELPLDTCIDTLSLGQKYRVMLASQLVLNPRVLLLDEPWAQLDDEGVGQLMVTLARLKADGMALIIAEHHPAAFAGLLDFHWLLDQGRLQPAAAGKASGALRADILCRWNPNGLGGRKCLTLAPCDLVLPTLAQGGRGRSGSKGFLSARFASAAPEGRSLFRLDTPLVLRTGDIRLLLGDNGSGKSTLLKALAGLQDGVKLPVKLDGRIPNTAAGEVALMLQRPSRQLFELTVVEELSFSIRRRGLDEAQVAWVQAFLAIEHLAAVSPHKLSWGQQHLVLLAALVITEPRLLLLDDPFAGLDEQSLMACIKLLNWYLSRGGCCVLACHRDVTGFEQVARWQLKDGLLTEVEASGQALAARDGAQTKPWELAAGGMGR
  soluble on expression in E. coli: not soluble

## MGRVTLRITGTQLLCQDEHPSLLAALESHNVEVEYQCREGYCGSCRTRLVAGQVDWITEPLAFIQPGEILPCCCRAKGDIEIEM
  soluble on expression in E. coli: not soluble

## MATLEQKLTVLISDTIESMGYELVGVECQHAGRFLTVRLYIDKEGGVTIDDCSDVSRQVSAIFDVEDPISDKYNLEVSSPGLDRPLFTLAHYARFVGREMVIHLRIPMFDRRKWQGKLTKVDGDLISLEIENNGEHQFIFSNIQKANLIPVFDF
  soluble on expression in E. coli: not soluble

## MAVNVYSTSVTSDNLSRHDMLAWINESLQLNLTKIEQLCSGAAYCQFMDMLFPGSIALKKVKFQAKLEHEYIQNFKILQAGFKRMGVDKIIPVDKLVKGKFQDNFEFVQWFKKFFDANYDGKDYDPVAARQGQETAVAPSLVAPALNKPKKPLTSSSAAPQRPISTQRTAAAPKAGPGVVRKNPGVGNGDDEAAELMQQVNVLKLTVEDLEKERDFYFGKLRNIELICQENEGENDPVLQRIVDILYATDEGFVIPDEGGPQEEQEEY
  soluble on expression in E. coli: soluble

## MTKAFDAFERAIRDAEDLLARHDAEKTVPNGHNGEVLKRAGLVMALAAWETYVKDRLQSEIDTWLQAVEGSPLGKFVRRRLEEDLKRFFNPNDERTRRIFIDYFDVDITKDWVWENYDSSTSKKVLDSLVAKRGDAAHKANTALHASAEPHKVKRDELEKGIRFLKGLVAATEKAKITK
  soluble on expression in E. coli: not soluble

## VLDPLGPGAPVLVAGGRVTGQAVAAVLTRFGATPTVCDDDPVMLRPHAERGLPTVSSSDAVQQITGYALVVASPGFSPATPLLAAAAAAGVPIWGDVELAWRLDAAGCYGPPRSWLVVTGTNGKTTTTSMLHAMLIAGGRRAVLCGNIGSAVLDVLDEPAELLAVELSSFQLHWAPSLRPEAGAVLNIAEDHLDWHATMAEYTAAKARVLTGGVAVAGLDDSRAAALLDGSPAQVRVGFRLGEPAARELGVRDAHLVDRAFSDDLTLLPVASIPVPGPVGVLDALAAAALARSVGVPAGAIADAVTSFRVGRHRAEVVAVADGITYVDDSKATNPHAARASVLAYPRVVWIAGGLLKGASLHAEVAAMASRLVGAVLIGRDRAAVAEALSRHAPDVPVVQVVAGEDTGMPATVEVPVACVLDVAKDDKAGETVGAAVMTAAVAAARRMAQPGDTVLLAPAGASFDQFTGYADRGEAFATAVRAVIR
  soluble on expression in E. coli: not soluble

## MVAERNKDGRVVFDRGLRAQMMAIDGTWRRPCLIEDVSELGAKLTVEGTVEGLNLKEFFLLLSSTGLAYRRCELSWINGDQIGVTFLRLDRKKKRAAQVENA
  soluble on expression in E. coli: not soluble

## MQEVPPDFEDVHIAEARVDVPSTWRDQIVNTNAVATETHPLKCAEVETQTGSKDNQGTQTDDAGGGRPPSPSKVQASGVADFMAKVEGMVAGELVKATEEHEVLEPFTRAADDEQEPATCIHYLSPFQQDAAANQDLNAT
  soluble on expression in E. coli: soluble

## MGSDKIHHHHHHMTQQTDLQSKTNIDPLAMNDSFLAAADALAVDPMFGIPANVREVIARRGNATRLVILGTKGFGAHLMNVRHERPCEVIAAVDDFRYHSGELYYGLPIISTDRFTELATHDRDLVALNTCRYDGPKRFFDQICRTHGIPHLNFEQAVRAFGLQGNVDYRVDDWGADIVRNIPAFQTLAQRLADDYSVQTLYAVLNFHLTCEPEYYHEVERPYSTLYFRSGLLRFSDSEKMVDCGASIGESLAGLIGVTKGKFERVWMIEPDRINLQTLQNVLRRYTDTNFASRITVHGCGAGENTIRVPFNHEGGHGGFVKPADADHEPADLIDVRPIDDIIDDAPTFIKMDIEGSELSALKGARRAISEHKPKLAISAYHRSTDLLDLTNYILSIRPDYQIGLRHHTPDRWDTCLYFY
  soluble on expression in E. coli: not soluble

## MGHQNAAVSENQNHDDGAASSPGFKLVGFSKFVRKNPKSDKFKVKRFHHIEFWCGDATNVARRFSWGLGMRFSAKSDLSTGNMVHASYLLTSGDLRFLFTAPYSPSLSAGEIKPTTTASIPSFDHGSCRSFFSSHGLGVRAVAIEVEDAESAFSISVANGAIPSSPPIVLNEAVTIAEVKLYGDVVLRYVSYKAEDTEKSEFLPGFERVEDASSFPLDYGIRRLDHAVGNVPELGPALTYVAGFTGFHQFAEFTADDVGTAESGLNSAVLASNDEMVLLPINEPVHGTKRKSQIQTYLEHNEGAGLQHLALMSEDIFRTLREMRKRSSIGGFDFMPSPPPTYYQNLKKRVGDVLSDDQIKECEELGILVDRDDQGTLLQIFTKPLGDRPTIFIEIIQRVGCMMKDEEGKAYQSGGCGGFGKGNFSELFKSIEEYEKTLEAKQLVG
  soluble on expression in E. coli: soluble

## METTWDLTPLFPGLESPEFQRAWEGLKGRIGELKGLLEREAPLPEVLAALDAFLEEATPLRAYLYARYSADTRDEAALAKLSELEILFLDFQRLRPRLTRYLALKDPEEAGPHRLLVEEAKEEALHMMPEGEEVLAAELSLSGRAAWDKLHESLTSQITAVVDGEEMPITKVRNLYFHPEEEVRKKAYEAELKAWEAHEVPLAFALNGVKGEASVLNRRRGYRDDLEPTLHENRITRKALKAMQEAVGESLPLFRRYFLLKARALGKERLDWWDLFAPLGRGRRWSLEEARAFIPAKLAALVPNAAKVAEMAFHERWMDLLPRKGKVGGAYCMARGGGKSLILANYEESFESVSTLAHELGHAYHNFALKEAPASLRRVPMTLAETASIMNETLVVEAALKEASPEEGLLILDAYLQGAAQVVVDIHSRFLFESWVFQRRKARELSPREFKELMLKAQEEAYGEALATRHPYMWAVKGHYYGADFYNYPYTFGLLFGLAVYQEAKEDPGFAGRYEALLAESGRYRAKELALRFGFDLESVDFWRRGIRVLEEKVAQLERMISP
  soluble on expression in E. coli: soluble
